Laboratory results: the supplement of paper PMC10567573

B1: BTBD1 (parent)
chain: FVLGKGRGAAAAGGPQRIPAHRFV

Variants of: B1
Assay: protein stability index of a GFP-peptide fusion (GPS, HEK-293T) (PSI 1-6); higher = more stable
Settings: c terminus: a fixed tail appended
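Note: lentivirally expressed fusions sorted by FACS into six bins by GFP to DsRed ratio, PSI derived from sequencing read proportions per bin multiplied by bin number.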

Protein stability index of substitutions, site by site:
I18: P 2.12 | M 2.87 | R 1.46 | C 2.27 | D 2.16 | Q 2.03
G8: N 1.62 | I 2.26 | Y 1.44 | S 1.2 | K 2.02 | A 1.33 | F 1.5 | H 2.31 | Q 1.48
A9: N 1.95 | I 1.94 | D 2.35 | V 2.21 | H 2.08 | E 2.72 | S 1.57 | F 1.28 | T 1.96
G13: E 2.31 | H 1.71 | F 1.3 | L 2.14 | R 1.41 | N 2.57 | I 2.25 | P 1.75 | S 2.15 | Q 2
P15: L 1.43 | M 2.08 | V 1.43 | C 3.79 | R 1.99
V24: G 1.56 | S 2.21 | M 3 | P 2.47 | R 1.8 | D 2.27
G14: D 2.64 | R 1.04 | L 2.15 | S 2.64
R7: V 2.06 | H 1.7 | K 1.17 | F 1.27 | S 2.24 | L 3.04 | W 3.44 | I 2.15 | N 1.32
A11: K 1.77 | C 2.71 | M 1.73 | H 1.96 | P 1.5 | R 1.41 | T 1.52
F23: K 3.99 | E 2.04 | N 1.9 | T 2.2 | H 1.45
V2: L 1.97 | F 1.67 | C 2.18 | N 3.23 | G 2.74 | W 1.76 | Q 3 | T 2.35
G6: F 1.02 | R 1.78 | S 1.44 | H 1.67 | L 2.69 | A 1.97 | Q 1.91
G4: T 1.46 | V 2.3 | Q 1.4 | H 2 | E 1.94 | N 2.36 | P 2.59 | A 1.73 | R 2.33
Q16: D 1.41 | P 1.86 | V 2.31 | A 1.6 | S 1.9 | M 2.2 | I 2.2 | G 1.87
R17: S 1.86 | Y 1.49 | F 1.28 | H 1.86 | M 1.56 | Q 1.92 | E 2.13
A20: L 1.76 | R 1.35 | C 1.73 | T 1.74 | N 1.49 | F 2.32 | M 2.09
F1: A 2.66 | S 2.92 | V 2.21 | C 2.22 | Q 3.28 | P 3.04 | Y 1.26 | I 1.91 | T 3.32
K5: V 1.38 | F 1.95 | N 2.04
P19: L 1.5 | Q 2.17 | T 1.88 | R 1.81
R22: Q 1.84 | T 5.22 | D 2.35 | L 2.3 | S 1.36
A10: E 1.67 | I 1.52 | D 1.64 | H 1.68 | F 2.27 | Y 1.79 | P 1.95 | V 1.43 | T 1.91 | C 1.36
L3: Y 1.79 | C 1.67 | W 1.14 | I 1.68 | A 2.17 | F 1.61 | K 2.2 | V 1.61 | T 2.01
A12: W 2.86 | M 1.52 | N 1.78 | Q 1.43 | E 1.84 | C 2.54 | Y 1.16 | K 1.82
H21: Q 1.91 | D 2.22 | T 2.72
